Data from patent US20220267412A1 (SERPLUS TECHNOLOGY, published 2022).
Numbering of substitutions follows the chain as printed. Names may count otherwise.

T1: human neutrophil elastase (human, UniProt P08246 30-247, limits assumed)
T1 sequence (looked up): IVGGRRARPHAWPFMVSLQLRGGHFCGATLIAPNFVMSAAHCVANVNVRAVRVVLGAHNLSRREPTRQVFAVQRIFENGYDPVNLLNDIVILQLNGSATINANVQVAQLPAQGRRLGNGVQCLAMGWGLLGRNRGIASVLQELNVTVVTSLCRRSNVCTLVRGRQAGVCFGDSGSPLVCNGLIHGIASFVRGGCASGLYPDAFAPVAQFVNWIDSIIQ

T2: neutrophil proteinase 3 (UniProt P24158 28-248, limits assumed)
T2 sequence (looked up): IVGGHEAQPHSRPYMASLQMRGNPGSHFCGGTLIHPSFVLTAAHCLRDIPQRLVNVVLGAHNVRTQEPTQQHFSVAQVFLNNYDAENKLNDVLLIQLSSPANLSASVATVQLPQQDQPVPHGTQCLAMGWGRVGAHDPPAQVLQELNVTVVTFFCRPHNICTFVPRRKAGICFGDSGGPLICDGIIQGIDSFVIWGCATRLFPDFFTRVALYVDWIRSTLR

B1: recombinant human serpin B1, wild type (rhsB1-cys344), reduced active monomer (other)
chain: MEQLSSANTRFALDLFLALSENNPAGNIFISPFSISSAMAMVFLGTRGNTAAQLSKTFHFNTVEEVHSRFQSLNADINKRGASYILKLANRLYGEKTYNFLPEFLVSTQKTYGADLASVDFQHASEDARKTINQWVKGQTEGKIPELLASGMVDNMTKLVLVNAIYFKGNWKDKFMKEATTNAPFRLNKKDRKTVKMMYQKKKFAYGYIEDLKCRVLELPYQGEELSMVILLPDDIEDESTGLKKIEEQLTLEKLHEWTKPENLDFIEVNVSLPRFKLEESYTLNSDLARLGVQDLFNSSKADLSGMSGARDIFISKIVHKSFVEVNEEGTEAAAATAGIATFCMLMPEENFTADHPFLFFIRHNSSGSILFLGRFSSP
B2: rhsB1M*, post-translationally modified (oxidized) monomeric form of rhsB1-cys344 (other)
chain: B1 chain
modifications: Cys-344 in an irreversibly oxidized state (chemical nature of the modification not determined)
B3: human serpin B1 C344V variant (other)
chain: B1 chain with C344V
B4: human serpin B1 C344A variant (other)
chain: B1 chain with C344A
B5: human serpin B1 C344G variant (other)
chain: B1 chain with C344G
B6: rhsB1D, intermolecular disulfide-bonded dimeric form of rhsB1-cys344 (other)
chain: B1 chain
modifications: intermolecular disulfide bond Cys-344:Cys-344 between the two monomers
B7: peroxynitrite oxidized (inactivated) wild-type rhsB1 (other)
chain: B1 chain
modifications: oxidized by peroxynitrite (Cys-344 per the filing; chemical nature not determined)
B8: human neutrophil cathepsin G (enzyme, UniProt P08311 21-244, looked up)
chain: IIGGRESRPHSRPYMAYLQIQSPAGQSRCGGFLVREDFVLTAAHCWGSNINVTLGAHNIQRRENTQQHITARRAIRHPQYNQRTIQNDIMLLQLSRRVRRNRNVNPVALPRAQEGLRPGTLCTVAGWGRVSMRRGTDTLREVQLRVQRDRQCLRIFGSYDPRRQICVGDRRERKAAFKGDSGGPLLCNNVAHGIVSYGKSSGVPPEVFTRVSSFLPWIRTTMRS
notes: Bought purified enzyme; also called CatG

Tests used:
[1] = molecular target: TLCK-treated bovine alpha chymotrypsin (bovine, UniProt P00766 1-13; P00766 16-146; P00766 149-245); assay: cell-based or functional assay
[2] = molecular target: T1, human neutrophil elastase; assay: cell-based or functional assay
[3] = molecular target: porcine pancreatic elastase (porcine, UniProt P00772 27-266); assay: cell-based or functional assay
[4] = molecular target: B8; assay: cell-based or functional assay
[5] = molecular target: T2, neutrophil proteinase 3; assay: cell-based or functional assay
[6] = molecular target: B2; assay: SDS-PAGE of enzyme:serpin complexes, no 2-ME
[7] = molecular target: B6; assay: SDS-PAGE of enzyme:serpin complexes, no 2-ME

Chain of porcine pancreatic elastase (P00772 27-266): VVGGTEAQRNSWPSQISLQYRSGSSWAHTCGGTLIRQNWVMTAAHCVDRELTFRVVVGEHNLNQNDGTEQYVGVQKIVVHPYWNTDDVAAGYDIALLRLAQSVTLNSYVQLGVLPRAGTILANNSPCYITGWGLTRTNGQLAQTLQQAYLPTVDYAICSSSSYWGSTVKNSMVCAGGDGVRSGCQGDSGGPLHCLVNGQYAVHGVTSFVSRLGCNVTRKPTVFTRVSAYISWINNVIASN

Binder: B1
inhibition of chymotrypsin, monomer against dimer [1]: 2 fold more effective than rhsB1D
stoichiometry of inhibition (SOI), with 2-ME [1]: ~0.5 molar ratio inhibitor:enzyme
stoichiometry of inhibition (SOI) [2]: ~2.1 molar ratio inhibitor:enzyme
amount of purified protein to fully inhibit PPE (typically 160 nM, 200 uL, +40 mM 2-ME) [3]: 1 µg
SOI with CatG against SOI with BC [4]: ~2 fold of the SOI with BC
inhibition of CatG, reduced dimer against unreduced dimer [4]: ~2 fold against the unreduced dimer
inhibition of cathepsin G, monomer against dimer [4]: 2 fold more effective than rhsB1D

Binder: B2
stoichiometry of inhibition (SOI), with or without 2-ME [1]: ~3 molar ratio inhibitor:enzyme
stoichiometry of inhibition (SOI), with 2-ME [2]: ~13 molar ratio inhibitor:enzyme

Binder: B3
amount of purified protein to fully inhibit PPE (typically 160 nM, 200 uL, +40 mM 2-ME) [3]: 1.5 µg

Binder: B4
amount of purified protein to fully inhibit PPE (typically 160 nM, 200 uL, +40 mM 2-ME) [3]: 1 µg

Binder: B5
amount of purified protein to fully inhibit PPE (typically 160 nM, 200 uL, +40 mM 2-ME) [3]: 3.5 µg

Binder: B6
stoichiometry of inhibition (SOI), no 2-ME [1]: ~1 molar ratio inhibitor:enzyme
SOI with CatG against SOI with BC [4]: ~2 fold of the SOI with BC

Binder: B7
loss of PR3 inhibitory activity, 2-fold molar excess of inhibitor [5]: ~40 % of inhibitory activity lost

Binder: B8
binding result [6]: binds
binding result [7]: binds
